The text below walks through data of paper PMC7501853.

In this test the target is nesprin-2-Giant, Q6ZWQ0-1. Nature of the test: Duolink PLA (proximity ligation assay) in cells. The settings on record: chain shown with the change; Bax/Bak DKO MEFs, transient transfection, in the presence of Q-VD-OPH; anti-Bax (6A7) Ab and anti-nesprin-2G Ab; n = 3; parent: est. 5.1; read off a plot; scale: fold of normalized Duolink dots per transfected cell relative to GFP.

B1: GFP-Bax, Q07812 63-65A (protein)
chain: MDGSGEQPRGGGPTSSEQIMKTGALLLQGFIQDRAGRMGGEAPELALDPVPQDASTKKLSECAAAIGDELDSNMELQRMIAAVDTDSPREVFFRVAADMFSDGNFNWGRVVALFYFASKLVLKALCTKVPELIRTIMGWTLDFLRERLLGWIQDQGGWDGLLSYFGTPTWQTVTIFVAGVLTASLTIWKKMG
For the molecule B1, the response came out at 8.8.
